Measured values published in publication PMC12692541.
pKd: −log10 of the molar value.

System: HalTzlAAA homotrinucleopeptide (synthetic (designed))
Assay: fluorescence anisotropy
Settings: none (unmodified); TB (tris/borate) buffer, 25 °C, 20 min incubation; RNA refolded at 90 °C for 5 min; salt and pH not given in the material

GCAGACUUUUAAUCUGC [ASLLys3] showed a pKd of 4.12.
